In a protein production outcome set (Wang et al. 2014):
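Also: failed if final PepcDB status was selected cloned or expressed and not failed if soluble or beyond.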

Experiment: label from the status in PepcDB records
In the case of “MITLSQRIFIILESAWRRRYLIVLPIILMPFIGLTVAKLAPKHYDSHTSMLIQETAKMNPFLEDLAVSTMLKERLSALQTLLHSRHILGSVAEERGYIHESMSPQAIDNEINKLSANLSVSMAGKDLIRIDYRANNPDGMKDTLEAVSRHFTEQLLAPERSSMKDSSKFLSDNIEFRRQELDAAEEKLAEFKSQENTVLPEMQITSLDRLTKLKQRLYERQAELAGAKKRLGSIDLQLSKTNPVIGKIEEQIIRIRGELTLLQAKYTPQHSKVQGKLRNLNRLEEERSRLLSQTQPGLSSEQLWDIASSNSVEDLAKAPPILLSQLEELQQATSKVDALTEETRVLESMIKDIELQASTFGQNEKVLYQLQRDLALKRELYNDLVERFEMAKLTRSLGVFEQEKRVKIIDRPYTPSGPSNLPTILYAIAGVIGGIGFGIGMAIIAELCDTSIRRKDEIATLSTSPVLSRIPPQPVKCFNLSEDTHSTTNNLLSSMSKAN”, the protein production was “failed”.
With “MITMTEVKGKTANESRVFKTSRVFPTDLNDHNTLFGGKILSEMDMVASISASRHSRKECVTASMDWVDFLHPVRSSDCVSYESFVIWTGRTSMEVFVKVVSEYLISGEKRIAATSFVTFVALSKENNPVPVPRVIPDTEEEKESHRIAVLRAEQRHIRKAESKKVATLLTF” the protein production was “not failed”.
For “MITRTVKAQLLAFATVTAVGVSYVGAEYTGLVDDVLGRGYTVRADFADSGGIFPGAEVTYRGVPVGRVGALRLTGSDGVSVALDIKDGVPRIPADTLAVVANRSAVGEQYVDLQPRTSHGPYLLDGSAIPRGSTRVPLPTTDLVLSLDRLVDSVGKDDLRVTVDELGKAFSGTGPNLSRLVDSGNALVESASESLPQTISLIEDSRKVLKTQADQGSSIKSFAHDLAALSAQLKSSDGDLRKLIGNATPAAQQVNSLLKSTGPRLSVLLANLISGGQVTLARLPGVEQSLVTFPALVAGSYTVVPGDGTTHFGLVVNADDPPPCTQGYGTTRRDPSDTSTREANTDARCTAPRGNKTSVRGAQNAPGASTTSGGTNQAAYVTPYDPETGTATGPDGRPVEIGSTGGQQAVFGRESWQWLLVGPMA”, the protein production was “failed”.
In the case of “MITSNLFDLRRWRANMSAMRFFALTSAALPLALMLLTSSFPAAAAEKSAAATKKDVIVEQADANNSPKQHLDQLFSQLKRERDPEKASGIANEIRMEWNDSGSATVNLLMQWADKAIEEKRNPAALDFLDEAIALKPDYAESWNRRATLNFVMGNYRKSMSDIERVLDLEPRHFGALSGMAAILSNSGNDQLTLKAWERFLDIYPAERTAQEQANTLAEKLAGNRT”, the protein production was “failed”.
With “MITTFKCVLVTKNIRMNERLMNSQSGYLRKAVNHPINWYTWSNDVFEIAKKENKPILIDVGAAWCHWCNVMDEDTYSNPEIAKIVNENFIPVKVDRDEMPDLDRLLQNAAMAITGESGWPLTIFMTPEGKVFFGGTYFPPEDRYGRIGFKRLLLEILRIWREDRNQILLSS” the protein production was “failed”.
With “MITTIPWKATQAQPNAFPERQALMPVWEGEAIPQAEWQQCWQQAAINVLKEDGLAYFHIPFCASHCIFCGFYRNAWKEDYSKVYTDKLIEELAYEASIRQGNGKIQAVYFGGGTPTALATEDLVRLIKACYQYLPLATDCEFTLEGRISHFDIEKARACVEAGVNRISIGVQTFNSAIRKRLGRKHSGEEAYAYLQALCELDAVIVADLIFGLPNQTDEVWANDINVASGLPLSGLDIYAFNNYPFLPINKMIEHGTLPPAASFEVQAQHYAYAVENLQQAGWTQVSNNHFAFPGRGERNRYNTLVKSNMPCLAFGSGAGGNFSGYSFQVDTTLQTYLDTPADKKALSYLSKQGPNKQLLGIVQHDLELGYLDIKLFRDNPKAMKLLMQWQQLSLLNIDANGIACLNISGRYWSPTLIRKLMLTLPTHDEKEHKMVKLSEQQLAELRQSLAENPGQILEMVAGMKQCSFEEVISCLPQEMITKTDGSRFVEIMQALATLEDAVTFIAHTADAIVEVTGKLPSGQIGRGFYNFDHTHEGGVHGHLRYENCAAIYLLERPFMGKHTVSLNFVNHQGGAMFKIFVGRDAERNLRQNQIDFMRQLIKG” the protein production was “failed”.
In the case of “MITVLILRCIMVKSTTRKSAKSDRRRYNRIARFYDLFETPMELMNFRKWRKMLFDLIKAEKGLVLEIGAGTGKNIPHYPSNVVALDISEKMLERAVRRAKESGKKVDFLLADAENLPFRSNSFDVVFTTFVFCSVDDPVRGLREAFRVLKKGGRAYFLEHMLPKSRFLHPLFNLLNPIFRAFGPEINRRTDENIQRAGFQIVKEYMLFGSVFRLIVAEKPLDSVDEASGYSLKRSESSDSSNFRRFIGQSLLPLRLTQLLR”, the protein production was “failed”.
In the case of “MIVEVLIRVFFLICTAALGWGAGYILKLSSKEISSLLVYVISPFVIFVSILQSPADWTYFAYSLGALLTASVAAFLAYGLARMIWSDGRVNLFSFAAGTGNTGYFALPLAFALFNAQQIAIAVFIIIGINIYEFTVGYFIAAKGTFKTTDSLQKIVRLPILYAIILGMTFKKWGIDVGATLLSAMSNFKGAYSVLGMMVIGVTLASYQKIKIDWGFLIATLTWKHLIYPAVGVLIFYFITPVSIDTLAVIVMMLATPMAANTVVVANTLNLYPEKAAFSVMVSTFLAVVTVPLAIVWVTRLSR”, the protein production was “failed”.
For “MIVKEDSVEAVGAQLKVYHQQYQDKSREYDQLYEEYTRTSQELQMKRTAIEAFNETIKIFEEQGQTQEKCSKEYLERFRREGNEKEMQRILLNSERLKSRIAEIHESRTKLEQQLRAQASDNREIDKRMNSLKPDLMQLRKIRDQYLVWLTQKGARQKKINEWLGIKNETEDQYALMEDLEHHHHHH”, the protein production was “failed”.
In the case of “MIVPYSVEDILKDGCFLERAEIDRLLDRLRTKKNLILQGPPGTGKTWLAKRLAFALMGQKDDSKVRAVQFHPNLSYEDFVRGWRPTGEGKLSLADGVFMEAIKAASKDPSSKFVVVIEEINRGNPAQIFGELLTLLEAGKRTPNEALELCYPDADGKRRPVHIPENLYVVGTMNIADRSLALVDLALRRRFAFVGLEPRLGQVWRDWVVKECAVDPLEHHHHHH”, the protein production was “failed”.
With “MIVRGGGDLATGVIQKLWHVGFKILVLETECPLAIRRTVSVCDAIFQKEQRVEDLVAVRITSLKDCAKCWQQNKLPVFVDQTASAIQQLKPLIVIDAILAKKNLGTHRGMAPITIALGPGFSAPQDVDVVIETMRGHRLGRLYFEGTALPNTGIPGEIGGKSAERVVHAPASGQVTHLKNIGDLVLKGEALFLIDQVPVYSPLTGTLRGLISEKVTCYQGLKCADVDPRPVEKVDCLTISDKARALGGAVLEAIFMIGRRKNVLLEHHHHHH” the protein production was “not failed”.
With “MIVRMRSCAQAAKVAEATGGVQLAGKPKPDGTPTFSRYVEIGVDFEAHRPVVESVSVLFELYDGDANSYAATGGPGAQLPSGWMVTAAKFEVEWPADPQRAGLVRSHFGARRKAFNWGLAQVKADLDAKAADPAHESVDWDLKSLRWAWNRAKDDVAPWWAENSKECYSSGLADLAQGLANWKAGKNGTRKGRRVGFPRFKSGRRDPGRVRFTTGTMRIEDDRRTITVPVIGPLRAKENTRRVQRHLVSGRAQILNMTLSQRWGRLFVAVCYALRTPTTRSPLTQPTVRAGMDLGVRTLATVATLDTATGEQTIIEYPNPAPLKATLVARRRAGRELSRRIPGSHGHRAVKAKLARLDRRCVHLRREAAHQLTTELAGTYGQVVIEDLDVAAMKRSMRRRAFRRSVSDAAMGLVAPQLAYKTAKCSGVLTVADRWFASSQIHHGCTSPDGTPCRLQGKGRIDKHLLCPVTGEVVDRDRNAALNLRDWPDNASRGPVGTTAPSAPGPTTTVGTGHGADTGSSGAGGASVRPRPRRAGRGEAKTQTPQGDAA” the protein production was “failed”.
For “MIWQLIDKHRQSFGVEPLCRVLQVSPSAYRRHAARLRDRSRRSARAIRDEELAVQIHRVWQENYEVYGARKVWRQMHREHQVVARCTVERLMREMGLCGVTRGKTVKTTQPDPDNANPRDLVKRQFTAERPNQLWVADFTFVSTWQGFAYVAFIVDVYSRFIVGWRVSRHMRTEFVLDALEQALHTRRPEPHRLVHHSDRGSQYLSIRYSERLGEAGIEPSVGNTGDSYDNALAETINGLYKTELIHKRGPWKSVDSLEWETLKWVTWFNHQRLLEPIGNRPPAEFEALYEQSQATISVAA”, the protein production was “failed”.
For “MIYKITLTDISLAQAFISIPQDVIALDLSNNLLGSKSCVDLLVNIADCIPAGVTSLDLSSNGLRLTQVSLVTPKHVTSLNLCFNPLHEISIDGLEWLKDSLAHIQIIYLSYDMVNNMSREQRQAFRAVIPNIQTIILVDKNGKEIGPSHTAKIANLISELGGGNPEVPSLLNQCTFFVKTQGINIDKAYIPEELKKRIHDCNPL”, the protein production was “failed”.
For “MIYPDELAVITSKFELELSETDRNKVHENVSTVSGRDFFMSIFEGLKMKDKILEYWDFRSSDYHTEYAHCMDEEMDVWKSVFSEILLTDKKVRAVEVGTGPGILAISLAAMGHDVTGVDLSENMLEKAAANAREKGVNVLLMRGDAEDIPLKDGEYDFVLSKYLLWTLPQPDKFLGECCRLLKDGGIMMIIDGLWFHNPDGTEKKSSRYERFDELYGDVKPNLPFAKENTPERIADLAESHGFEDLTWRFLDDYDAFLERNDPSGHAAAYIKPPHMILAKKKVRNS”, the protein production was “failed”.
With “MIYSKVENFINENKQNAIFTEGASHENIGRIEENLQCDLPNSYKWFLEKYGAGGLFGVLVLGYNFDHASVVNRTNEYKEHYGLTDGLVVIEDVDYFAYCLDTNKMKDGECPVVEWDRVIGYQDTVADSFIEFFYNKIQEAKDDWDEDEDWDD” the protein production was “not failed”.
For “MKAALLDQVARVGKALANGRRLQILDLLAQGERAVEAIATATGMNLTTASANLQALKSGGLVEARREGTRQYYRIAGEDVARLFALVQVVADEHLEHHHHHH”, the protein production was “not failed”.
With “MKAIMRRLIMTNFFNTPLFGLTLSVLAYTLGLSLYRRFPNPLTTPLLVSTALIIVILHYTGICYRDYYVGGSYLNSLIIPSTVALAVPFYKNLHLMRHHCKSILIGSTVACILNTTYTALIAKLFGMDYFLAISLFPKSVTTAMAVGISEKMQGITTVTLVVVVITGILTSVLGPVFLKMIGIKDPVAIGLSLGGTGHAVGTGTAFRYGQVAGAMGGLSIAVTGILYVFISPIVASLILR” the protein production was “failed”.
For “MKAIRRFTVRPVLPDALHPLSDLARNLRWSWHAETRELFQSVDPERWAASDGDPVRLLGSVPHARLAELAEDRRFLRRLGAAADDLTDYVTGDRWYQSQAEAPSRAAELPAAIAYFSPEFGVTAALPQYSGGLGILAGDHLKAASDLGVPLIGVGLLYRHGYFRQSLSRDGWQQEHYPVLDPHELPVVPLREDDGALAQVSLALPGGRRLQARIWLAQVGRVPLLMLDSDVEENDHGERGVTDRLYGGGSEHRLLQEMLLGIGGVRAVRTYCRLTGHAEPEVFHTNEGHAGFLGLERIAELCDTGLDFDAGLESVRAGTVFTTHTPVPAGIDRFDRELVARHFGPDAELPRIDVERILGLGMETYPGGEPNLFNMAVMGLRLGQRANGVSLLHGQVSREMFSGLWPGFDPDEVPITSVTNGVHAPTWVAPEVFRLGARQIGAQRTEDAMTVGGSERWDAVAEIPDQDIWDLRRVLREQLVTEVRERLRASWRQRGAGTAELGWIDGVLDPDVLTIGFARRVPSYKRLTLMLRDRDRLMDLLLHPERPVQIVVAGKAHPADDGGKRLVQELVRFADDPRVRHRIVFLPDYGMAMAQKLYPGCDIWLNNPLRPLEACGTSGMKAALNGCLNLSVLDGWWDEWFQPDFGWAIPTADGTATDEDRRDDLEATALYDLLEGRVAPRFYERGQAGLPDRWIEMVRQTLTHLGPKVLAGRMVREYVERLYTPAALAHRALTPEPARELATWKSRVRAAWPRVTVDHVETSVATTTAELGTTLSLRVRVGLGDLDPDDVEVQAVAGRVDGQDRITDATAVPLKPVGGPDLEGRRVYEGPLSLDRTGPFGYTVRILPTHRLLATSAELGLVAVPSEDVGEGAGVLLR”, the protein production was “failed”.
In the case of “MKALNDLNIFVETARQGSFSKAANSMDMTPAAISASIKRLEGQIGFPLFVRSTRSLRLTSEGELFLDKTTQALATLQEGLDQISSARGELSGQLHITAPSDFGRNMLLDWVDEFIDLYPNVSIKLELSDSLTDMYTKPVDIAIRYGEPADSNLVVLALCGSNERILCASPEYVATHPELTSPADLTQHNCLCYMVADSVYNKWTLTRDGEKEQVVVSGNLMSNDSDLPHRLAIKGKGIANKSLMDISRDLIEGRLVRVLPEWDSGPVPLYMVCADRRLLTPTIRTFRDFIQQKCCQQRANVLATFCH”, the protein production was “failed”.
